According to publication PMC5437232, “Structure of human promyeloperoxidase (proMPO) and the role of the propeptide in processing and maturation” (The Journal of Biological Chemistry, 2017):

Molecular target: the molecule itself
Test: SAXS; proteins in solution, 50 mM PBS, pH 7.4; concentrated to 1 mg/liter; 20 °C; SIBYLS beam line 12.3.1; Guinier plots and pair-density distributions compared with the crystal structures

B1: dimeric mature leukocyte myeloperoxidase (complex)
light: not shown
heavy: TGVNCETSCVQQPPCFPLKIPPNDPRIKNQADCIPFFRSCPACPGSNITIRNQINALTSFVDASMVYGSEEPLARNLRNMSNQLGLLAVNQRFQDNGRALLPFDNLHDDPCLLTNRSARIPCFLAGDTRSSEMPELTSMHTLLLREHNRLATELKSLNPRWDGERLYQEARKIVGAMVQIITYRDYLPLVLGPTAMRKYLPTYRSYNDSVDPRIANVFTNAFRYGHTLIQPFMFRLDNRYQPMEPNPRVPLSRVFFASWRVVLEGGIDPILRGLMATPAKLNRQNQIAVDEIRERLFEQVMRIGLDLPALNMQRSRDHGLPGYNAWRRFCGLPQPETVGQLGTVLRNLKLARKLMEQYGTPNNIDIWMGGVSEPLKRKGRVGPLLACIIGTQFRKLRDGDRFWWENEGVFSMQQRQALAQISLPRIICDNTGITTVSKNNIFMSNSYPRDFVNCSTLPALNLASWREAS
modifications: heme covalently bound | glycosylated; heme covalently bound; interchain disulfide Cys-319-Cys-319 between the two H-chains
notes: Myeloperoxidase, human, 14.5-kDa light polypeptide (L-chain) of mature MPO; three N termini found by mass spectrometry: Gly-164, Val-165 and Thr-166; ends before the excised peptide that begins at Ala-273; numbers on the 745-aa primary translation product; Myeloperoxidase, human, 59-kDa heavy polypeptide (H-chain) of mature MPO; three N termini found by mass spectrometry: Thr-277, Gly-278 and …
- stoichiometry N: 2
